Measurements reported in patent publication US20240117334A1, “FACTOR B PROTEASES” (Vertex Pharmaceuticals Incorporated, priority 2021, published 2024).
Changes are numbered by the printed parent chain. Names and notes keep the numbering of the source.

B1: chymase C22S/P38Q/K40M/F41K/L99W/V138I/F173M/A190S/V213A/S218N/A226R (enzyme)
chain: IIGGTESKPHSRPYMAYLEIVTSNGQSMKCGGFLIRRNFVLTAAHCAGRSITVTLGAHNITEEEDTWQKLEVIKQFRHPKYNTSTWHHDIMLLKLKEKASLTLAVGTLPFPSQFNFVPPGRMCRIAGWGRTGVLKPGSDTLQEVKLRLMDPQACSHMRDFDHNLQLCVGNPRKTKSSFKGDSGGPLLCAGVAQGIASYGRNDAKPPRVFTRISHYRPWINQILQAN
B2: chymase C22S/P38Q/K40Q/F41R/V138I/F173Y/D175N/A190S/V213A/S218V/A226R (enzyme)
chain: B1 chain with M28Q, K29R, W86L, M157Y, D159N, N201V
B3: chymase C22S/P38Q/K40I/F41R/L99N/V138I/D175T/A190S/V213A/S218V/A226R (enzyme)
chain: B1 chain with M28I, K29R, W86N, M157F, D159T, N201V
B4: chymase C22S/P38Q/K40Q/F41R/L99H/V138I/F173Y/D175S/A190S/V213A/S218V/A226R (enzyme)
chain: B1 chain with M28Q, K29R, W86H, M157Y, D159S, N201V
B5: chymase C22S/P38Q/K40A/F41R/L99H/V138I/F173Y/D175N/A190S/V213A/S218L/A226R (enzyme)
chain: B1 chain with M28A, K29R, W86H, M157Y, D159N, N201L
B6: chymase C22S/P38Q/K40M/F41R/L99N/V138I/F173Y/D175F/A190S/V213A/S218V/A226R (enzyme)
chain: B1 chain with K29R, W86N, M157Y, D159F, N201V
B7: chymase C22S/P38Q/K40M/F41R/L99N/V138I/F173Y/D175W/A190S/V213A/S218T/A226R (enzyme)
chain: B1 chain with K29R, W86N, M157Y, D159W, N201T
B8: chymase C22S/P38Q/K40L/F41R/L99Y/V138I/F173Y/D175N/A190S/V213A/S218V/A226R (enzyme)
chain: B1 chain with M28L, K29R, W86Y, M157Y, D159N, N201V
B9: chymase C22S/P38Q/K40M/F41R/L99S/V138I/F173Y/D175N/A190S/V213A/S218V/A226R (enzyme)
chain: B1 chain with K29R, W86S, M157Y, D159N, N201V
B10: chymase C22S/P38Q/K40A/F41R/L99H/V138I/D175N/A190S/V213A/S218I/A226R (enzyme)
chain: B1 chain with M28A, K29R, W86H, M157F, D159N, N201I
B11: chymase C22S/P38Q/K40M/F41R/V138I/F173S/D175Y/A190S/V213A/S218V/A226R (enzyme)
chain: B1 chain with K29R, W86L, M157S, D159Y, N201V
B12: chymase C22S/P38Q/K40M/F41R/V138I/F173L/D175R/A190S/V213A/S218T/A226R (enzyme)
chain: B1 chain with K29R, W86L, M157L, D159R, N201T
B13: chymase C22S/P38Q/K40L/F41R/V138I/F173Y/D175R/A190S/V213A/S218T/A226R (enzyme)
chain: B1 chain with M28L, K29R, W86L, M157Y, D159R, N201T
B14: chymase C22S/P38Q/K40A/F41K/L99N/V138I/D175H/A190S/V213A/S218V/A226R (enzyme)
chain: B1 chain with M28A, W86N, M157F, D159H, N201V
B15: chymase C22S/P38Q/K40M/F41R/V138I/F173Y/D175Y/A190S/V213A/S218I/A226R (enzyme)
chain: B1 chain with K29R, W86L, M157Y, D159Y, N201I
B16: chymase C22S/L99R/F173L/K192R/Y215H/R217T/S218V/A226R (enzyme)
chain: IIGGTESKPHSRPYMAYLEIVTSNGPSKFCGGFLIRRNFVLTAAHCAGRSITVTLGAHNITEEEDTWQKLEVIKQFRHPKYNTSTRHHDIMLLKLKEKASLTLAVGTLPFPSQFNFVPPGRMCRVAGWGRTGVLKPGSDTLQEVKLRLMDPQACSHLRDFDHNLQLCVGNPRKTKSAFRGDSGGPLLCAGVAQGIVSHGTVDAKPPRVFTRISHYRPWINQILQAN
B17: chymase C22S/L99Y/F173L/K192R/Y215H/R217T/S218V/A226R (enzyme)
chain: B16 chain with R86Y
B18: chymase C22S/L99R/F173Y/K192R/S218L/A226R (enzyme)
chain: B16 chain with L157Y, H198Y, T200R, V201L
B19: chymase C22S/K40L/F41A/K192R/A226R (enzyme)
chain: B16 chain with K28L, F29A, R86L, L157F, H198Y, T200R, V201S
B20: chymase C22S/K40M/F41V/K192R/A226R (enzyme)
chain: B16 chain with K28M, F29V, R86L, L157F, H198Y, T200R, V201S
B21: chymase C22S/K40M/F41V/G151R/K192R/A226R (enzyme)
chain: B16 chain with K28M, F29V, R86L, G137R, L157F, H198Y, T200R, V201S
B22: chymase C22S/K40L/F41V/G151R/K192R/A226R (enzyme)
chain: B16 chain with K28L, F29V, R86L, G137R, L157F, H198Y, T200R, V201S
B23: chymase C22S/L99H/F173Y/K192R/Y215K/R217S/S218V/A226R (enzyme)
chain: B16 chain with R86H, L157Y, H198K, T200S
B24: chymase C22S/L99F/F173K/K192R/R217S/S218I/A226R (enzyme)
chain: B16 chain with R86F, L157K, H198Y, T200S, V201I
B25: chymase C22S/L99W/F173K/K192R/R217S/S218V/A226R (enzyme)
chain: B16 chain with R86W, L157K, H198Y, T200S
B26: chymase C22S/L99W/F173K/R217S/S218R/A226R (enzyme)
chain: B16 chain with R86W, L157K, R179K, H198Y, T200S, V201R
B27: chymase C22S/F41I/L99H/G151K/F173Y/Y215K/R217G/A226R (enzyme)
chain: B16 chain with F29I, R86H, G137K, L157Y, R179K, H198K, T200G, V201S
B28: chymase C22S/F41V/L99H/G151R/F173S/Y215K/A226R (enzyme)
chain: B16 chain with F29V, R86H, G137R, L157S, R179K, H198K, T200R, V201S
B29: chymase C22S/F41K/L99H/G151A/F173Y/Y215K/R217S/A226R (enzyme)
chain: B16 chain with F29K, R86H, G137A, L157Y, R179K, H198K, T200S, V201S

target: Human Factor B (human) (UniProt P00751); test: cell-based or functional assay
Sequence (P00751 26-764 limits assumed): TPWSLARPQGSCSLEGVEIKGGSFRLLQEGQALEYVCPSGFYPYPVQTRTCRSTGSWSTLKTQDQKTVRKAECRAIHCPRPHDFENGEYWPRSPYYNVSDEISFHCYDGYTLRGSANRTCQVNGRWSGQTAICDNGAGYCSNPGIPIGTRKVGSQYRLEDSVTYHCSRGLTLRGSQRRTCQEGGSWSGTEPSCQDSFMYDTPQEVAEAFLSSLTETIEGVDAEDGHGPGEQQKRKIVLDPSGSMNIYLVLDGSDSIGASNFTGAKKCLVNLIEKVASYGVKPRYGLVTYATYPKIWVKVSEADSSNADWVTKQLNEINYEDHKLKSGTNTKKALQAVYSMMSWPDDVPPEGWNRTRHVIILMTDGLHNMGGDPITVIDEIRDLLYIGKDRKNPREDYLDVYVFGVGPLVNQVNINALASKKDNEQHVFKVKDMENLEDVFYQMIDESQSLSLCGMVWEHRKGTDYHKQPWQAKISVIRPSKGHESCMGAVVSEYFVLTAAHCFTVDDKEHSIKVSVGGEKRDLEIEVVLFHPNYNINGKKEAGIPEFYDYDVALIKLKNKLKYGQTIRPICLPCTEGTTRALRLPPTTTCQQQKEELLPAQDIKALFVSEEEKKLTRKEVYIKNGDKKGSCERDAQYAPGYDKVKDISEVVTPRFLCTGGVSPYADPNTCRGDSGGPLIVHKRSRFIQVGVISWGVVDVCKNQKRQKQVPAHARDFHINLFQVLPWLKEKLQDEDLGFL

| Binder | fB Cleavage EC50 [nM] | fB Cleavage, 64% A2M-depl plasma EC50 [nM] | fB Cleavage, 64% plasma EC50 [nM] | fB Cleavage, 80% plasma EC50 [nM] |
| --- | --- | --- | --- | --- |
| B1 | 956 |  |  |  |
| B2 | 100 |  |  |  |
| B3 | 203 |  |  |  |
| B4 | 150 |  |  |  |
| B5 | 139 |  |  |  |
| B6 | 193 |  |  |  |
| B7 | 500 |  |  |  |
| B8 | 57 |  |  |  |
| B9 | 472 |  |  |  |
| B10 | 170 |  |  |  |
| B11 | 287 |  |  |  |
| B12 | 51 |  |  |  |
| B13 | 223 |  |  |  |
| B14 | 121 |  |  |  |
| B15 | 465 |  |  |  |
| B16 | 7770 | 2290 | 4380 | 7590 |
| B17 |  | 4580 | 12400 |  |
| B18 | 555 |  |  |  |
| B19 | 7390 |  |  |  |
| B20 | 7770 |  |  |  |
| B21 | 7770 |  |  |  |
| B22 | 7500 |  |  |  |
| B23 | 3460 |  |  |  |
| B24 | 4000 |  |  |  |
| B25 | 2490 |  |  |  |
| B26 | 2660 |  |  |  |
| B27 | 7770 |  |  |  |
| B28 | 4780 |  |  |  |
| B29 | 1310 | 5750 | 5690 | 18600 |
